# What was measured:
# [1] = target: extracellular portion of CD147 (ECD), amino acids 22–205 (human) (UniProt P35613); experiment: SPR; Biacore T200; CD147ECD peptides diluted in 10 mM sodium acetate pH 4.5 and immobilised on a CM5 chip; purified proteins injected as analytes at 10 µL/min; BSA signal subtracted
# [2] = target: domain 1 of CD147 (human) (UniProt P35613); experiment: as above
substance,measurement,setting,value
extracellular portion of CD98 (212-630 of CD98hc) (domain or fragment),Kd,[1],431 nM
same,Kd,[2],3530 nM

# Source: publication PMC8632965
